# Results as given in paper PMC11662938, “Single-molecule visualization of sequence-specific RNA binding by a designer PPR protein”.
# B1: RNAdual-OH (delta2) (ssRNA)
# RNA: CAUUCCAACCCCCAAAGUGUAUCCUUAACCAUUUCUCUCACCAACCCCCAAAG
# Key:
# dPPR10-C2 [1] = biological target: T1, dPPR10-C2 (synthetic construct (designed consensus …, Q96C;Q376C)); experiment: smFRET; 1 uM RNA; mean binding time 30.0 s; SPR: 30 mM Tris pH 7.6, 40 mM KCl, 5 mM MgCl2, 0.5 mM DTT, 0.25 mM EDTA, 0.01% P20, 20 C; ensemble FRET and MST: 100 mM Tris-HCl pH 8.0, 100 mM KCl; smFRET buffer not in material; conditions: protein: recombinant; tags: N-terminal Avi-tag, biotinylated; Cy3/AF647 maleimide on Cys for FRET; no predicted secondary structure
# T1 chain: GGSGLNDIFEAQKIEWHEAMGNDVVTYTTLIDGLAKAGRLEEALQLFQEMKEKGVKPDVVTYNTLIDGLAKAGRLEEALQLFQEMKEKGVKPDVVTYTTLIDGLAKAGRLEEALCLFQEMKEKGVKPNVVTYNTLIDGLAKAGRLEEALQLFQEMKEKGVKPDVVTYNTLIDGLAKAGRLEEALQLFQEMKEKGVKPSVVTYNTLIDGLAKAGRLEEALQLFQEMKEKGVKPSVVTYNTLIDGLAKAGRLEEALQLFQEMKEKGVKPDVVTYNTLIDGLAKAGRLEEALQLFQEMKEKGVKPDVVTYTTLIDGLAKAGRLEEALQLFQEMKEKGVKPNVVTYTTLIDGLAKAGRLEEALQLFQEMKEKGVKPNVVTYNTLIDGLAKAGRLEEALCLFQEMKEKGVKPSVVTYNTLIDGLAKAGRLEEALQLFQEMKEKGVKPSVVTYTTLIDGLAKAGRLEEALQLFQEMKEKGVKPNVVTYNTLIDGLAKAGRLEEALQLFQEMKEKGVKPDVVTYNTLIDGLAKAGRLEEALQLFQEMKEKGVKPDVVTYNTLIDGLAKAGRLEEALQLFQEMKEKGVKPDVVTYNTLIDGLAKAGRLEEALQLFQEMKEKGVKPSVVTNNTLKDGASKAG
# dPPR10-C2 [2] = biological target: T1, dPPR10-C2; experiment: smFRET; 1 uM RNA; SPR: 30 mM Tris pH 7.6, 40 mM KCl, 5 mM MgCl2, 0.5 mM DTT, 0.25 mM EDTA, 0.01% P20, 20 C; ensemble FRET and MST: 100 mM Tris-HCl pH 8.0, 100 mM KCl; smFRET buffer not in material; conditions: protein: recombinant; tags: N-terminal Avi-tag, biotinylated; Cy3/AF647 maleimide on Cys for FRET
# dPPR10 [3] = biological target: T2, dPPR10 (synthetic construct (designed consensus …)); experiment: MST; SPR: 30 mM Tris pH 7.6, 40 mM KCl, 5 mM MgCl2, 0.5 mM DTT, 0.25 mM EDTA, 0.01% P20, 20 C; ensemble FRET and MST: 100 mM Tris-HCl pH 8.0, 100 mM KCl; smFRET buffer not in material; conditions: protein: recombinant; tags: Trx-His6-TEV (pETM20) cleaved; GAM remnant; label: 5' 6-FAM
# T2 chain: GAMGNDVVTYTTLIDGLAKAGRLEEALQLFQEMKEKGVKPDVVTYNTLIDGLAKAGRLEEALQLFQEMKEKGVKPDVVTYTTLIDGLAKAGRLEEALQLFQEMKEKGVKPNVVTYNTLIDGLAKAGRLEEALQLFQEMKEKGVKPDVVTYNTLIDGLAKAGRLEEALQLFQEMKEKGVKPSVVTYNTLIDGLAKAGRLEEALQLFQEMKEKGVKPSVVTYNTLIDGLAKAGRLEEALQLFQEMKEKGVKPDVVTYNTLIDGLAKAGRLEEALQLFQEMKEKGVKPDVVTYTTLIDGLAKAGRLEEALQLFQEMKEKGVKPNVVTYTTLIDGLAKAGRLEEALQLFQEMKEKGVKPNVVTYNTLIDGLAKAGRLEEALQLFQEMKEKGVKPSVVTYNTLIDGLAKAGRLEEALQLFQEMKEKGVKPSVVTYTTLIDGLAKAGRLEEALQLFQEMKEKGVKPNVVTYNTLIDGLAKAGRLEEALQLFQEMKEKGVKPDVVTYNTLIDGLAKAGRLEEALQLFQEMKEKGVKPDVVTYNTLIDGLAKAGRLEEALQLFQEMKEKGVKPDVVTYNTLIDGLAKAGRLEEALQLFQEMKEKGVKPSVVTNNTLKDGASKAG
# dPPR10-C2 [4] = biological target: T1, dPPR10-C2; experiment: competition; 100-fold excess over RNAcognate; smFRET; SPR: 30 mM Tris pH 7.6, 40 mM KCl, 5 mM MgCl2, 0.5 mM DTT, 0.25 mM EDTA, 0.01% P20, 20 C; ensemble FRET and MST: 100 mM Tris-HCl pH 8.0, 100 mM KCl; smFRET buffer not in material; conditions: protein: recombinant; tags: N-terminal Avi-tag, biotinylated; Cy3/AF647 maleimide on Cys for FRET
# dPPR10 [5] = biological target: T2, dPPR10; experiment: MST; Results value; Fig S4D legend gives 9.7 nM; SPR: 30 mM Tris pH 7.6, 40 mM KCl, 5 mM MgCl2, 0.5 mM DTT, 0.25 mM EDTA, 0.01% P20, 20 C; ensemble FRET and MST: 100 mM Tris-HCl pH 8.0, 100 mM KCl; smFRET buffer not in material; conditions: protein: recombinant; tags: Trx-His6-TEV (pETM20) cleaved; GAM remnant; label: 5' 6-FAM (FITC in Results)
# dPPR10 [6] = biological target: T2, dPPR10; experiment: MST; Fig S4D legend value, conflicts with 4 nM in text; legend says labelled dPPR10; SPR: 30 mM Tris pH 7.6, 40 mM KCl, 5 mM MgCl2, 0.5 mM DTT, 0.25 mM EDTA, 0.01% P20, 20 C; ensemble FRET and MST: 100 mM Tris-HCl pH 8.0, 100 mM KCl; smFRET buffer not in material; conditions: protein: recombinant; tags: Trx-His6-TEV (pETM20) cleaved; GAM remnant; label: 5' 6-FAM (FITC in Results)
# dPPR10-C2 [7] = biological target: T1, dPPR10-C2; experiment: smFRET; 1 uM RNA; mean binding time 41.3 s vs 10.6 s cognate; SPR: 30 mM Tris pH 7.6, 40 mM KCl, 5 mM MgCl2, 0.5 mM DTT, 0.25 mM EDTA, 0.01% P20, 20 C; ensemble FRET and MST: 100 mM Tris-HCl pH 8.0, 100 mM KCl; smFRET buffer not in material; conditions: protein: recombinant; tags: N-terminal Avi-tag, biotinylated; Cy3/AF647 maleimide on Cys for FRET; 5' extension, predicted secondary structure
# dPPR10-C2 [8] = biological target: T1, dPPR10-C2; experiment: smFRET; 1 uM RNA; rare transitions; SPR: 30 mM Tris pH 7.6, 40 mM KCl, 5 mM MgCl2, 0.5 mM DTT, 0.25 mM EDTA, 0.01% P20, 20 C; ensemble FRET and MST: 100 mM Tris-HCl pH 8.0, 100 mM KCl; smFRET buffer not in material; conditions: protein: recombinant; tags: N-terminal Avi-tag, biotinylated; Cy3/AF647 maleimide on Cys for FRET
# dPPR10-C2 [9] = biological target: T1, dPPR10-C2; experiment: ensemble FRET; SPR: 30 mM Tris pH 7.6, 40 mM KCl, 5 mM MgCl2, 0.5 mM DTT, 0.25 mM EDTA, 0.01% P20, 20 C; ensemble FRET and MST: 100 mM Tris-HCl pH 8.0, 100 mM KCl; smFRET buffer not in material; conditions: protein: recombinant; tags: N-terminal Avi-tag, biotinylated; Cy3/AF647 maleimide on Cys for FRET
# dPPR10-C2 [10] = biological target: T1, dPPR10-C2; experiment: smFRET; 1 uM RNA; mean binding time 43.4 s; SPR: 30 mM Tris pH 7.6, 40 mM KCl, 5 mM MgCl2, 0.5 mM DTT, 0.25 mM EDTA, 0.01% P20, 20 C; ensemble FRET and MST: 100 mM Tris-HCl pH 8.0, 100 mM KCl; smFRET buffer not in material; conditions: protein: recombinant; tags: N-terminal Avi-tag, biotinylated; Cy3/AF647 maleimide on Cys for FRET; 3' extension, predicted secondary structure
binder,measurement,setting,value
B1,binding result,dPPR10-C2 [1],binds
UGUAUCCUUAAC (ssRNA) [RNA1-12],binding result,dPPR10-C2 [2],binds
UCACAGGAACCGGCAAAGU (ssRNA) [RNAanti-cognate 5'-FAM],binding result,dPPR10 [3],no binding
UCACAGGAACCGGCAAAGU (ssRNA) [RNAanti-cognate],binding result,dPPR10-C2 [4],no binding
UGUAUCCUUAACCAUUUCU (ssRNA) [RNAcognate 5'-FAM],Kd,dPPR10 [5],4 nM
same,Kd,dPPR10 [6],9.7 ± 1.8 nM
CACAGGAACCGGCAAAGUGUAUCCUUAACCAUUUCU (ssRNA) [RNA5'-OH],binding result,dPPR10-C2 [7],binds
"UGUAUCCUAUACCAUUUCU (ssRNA) [RNA U9A,A10U]",binding result,dPPR10-C2 [8],no binding
UGUAUCCUUA (ssRNA) [RNA1-10],binding result,dPPR10-C2 [2],no binding
UGUAUCCUUAACCAUUUCU (ssRNA) [RNAcognate],Kd,dPPR10-C2 [9],1.2 ± 0.2 nM
CCAUUUCU (ssRNA) [RNA12-19],binding result,dPPR10-C2 [2],no binding
UGUAUCCUUAACCAUUUCUCACAGGAACCGGCAAAG (ssRNA) [RNA3'-OH],binding result,dPPR10-C2 [10],binds
